In publication PMC10027511, “Disordered proteins mitigate the temperature dependence of site-specific binding free energies” (The Journal of Biological Chemistry, 2023):
Read-outs that look alike come from different tables or passages of the source.

Legend:
[1] = molecular target: N-terminal SH3 domain of Drk (T22G); test: 1H-13C HMQC titration of SH3 into 13C-Ile Sos site 4 (NMR TITAN); format: binding, Drosophila melanogaster; details: for Kd: 51.5 μM Sos site 4, 20 mM sodium phosphate pH 7.5, 5% D2O; for Kd / koff / kon / ΔGA°′‡ (activation free energy of association) / ΔGD°′ (dissociation free energy) / ΔGD°′‡ (activation free energy of dissociation): single measurement, bootstrap; for koff / kon / ΔGA°′‡ (activation free energy of association) / ΔGD°′ (dissociation free energy) / ΔGD°′‡ (activation free energy of dissociation): pH 7.5
Source text: As an alternative, we measured binding of Sos and SH3 from the opposite perspective, that is, by monitoring the interaction via Sos by moving the NMR-active nuclei from SH3 to Sos. Specifically, we isotopically enriched (^13C-δ1 methyl) isoleucines in the site 4 protein construct. This construct has three isoleucines: I1384 is in site 4; I1394 is adjacent to site 4; and I1325 is likely distant from site 4. Assignments were made via mutagenesis (Supplemental Material, Fig. S5). […] High-quality fits were obtained using two-dimensional lineshape analysis (Figs. S6–S10), yielding affinities (Table 1) similar to those from ITC (Table 2), and site 4 peptide, but only at low temperatures (Table 1) ([34]).
Figure 3 ^1H–^13C HMQC titration of Sos site 4 at 35 °C.A, spectra. B, simulated spectra from TITAN fits. C, van’t Hoff and Eyring analyses of ^1H–^13C HMQC titrations. Measurements were made with a constant concentration of 51.5 μM Sos site 4, with titration points signified by crosspeaks of different colors. SH3 concentrations are 270, 122, 100, 75.0, 50.0, 37.5, 25.0, 12.5, 6.25, 3.13, […], 0.781, 0.391, and 0 μM. HMQC, heteronuclear multiple quantum correlation; Sos, Son of sevenless.
NMR data were acquired using Bruker Avance III HD spectrometers equipped with QCI cryoprobes (^1H Larmor frequencies of 500, 470 MHz for ^19F), or TCI cryoprobes (^1H Larmor frequencies of 850 MHz, 213 MHz for ^13C). Data were processed using NMRpipe (2020.171.18.39). Spectra across different temperatures are referenced to trimethylsilylpropanesulfonate.
^1H–^13C correlation spectra were acquired using a heteronuclear multiple quantum correlation experiment (optimized for the methyl transverse relaxation optimized spectroscopy effect) ([66]) with between 8 and 40 scans, depending on the signal/noise of the Ile1384 peak. The ^1H sweep width was 15 PPM using 5120 complex points and a center frequency at 4.7 PPM. Forty-eight complex points were collected in the indirect dimension, with a sweep width of 5 PPM, and a center frequency of 12.5 PPM. The water signal was suppressed and dephased using a combination of presaturation and selective shaped pulses. Sos site 4 protein was exchanged into 20 mM sodium phosphate, pH 7.5 plus 5% (v/v) D2O using a PD-10 midi desalting column (Cytiva); its concentration was then adjusted to 51.5 μM. Four hundred microliters of Sos site 4 solution were used to dissolve lyophilized SH3 for the initial titration point, and then spectra were acquired at 4.2, 15, 25, 35, and 45 °C. The solution containing only Sos site 4 was used for a series of dilutions to obtain SH3 titration points of 270, 122, 100, 75.0, 50.0, 37.5, 25.0, 12.5, 6.25, 3.13, 1.56, 0.781, 0.391, and 0 μM.
^1H–^13C heteronuclear multiple quantum correlation titration measurements of SH3 into [^13CH3-Ile]-labeled Sos were analyzed using NMR TITAN, version 1.6 ([34]). Measurements for each temperature were fit to a two-state interaction model, and parameter uncertainties were estimated from 100 bootstrapped replicas ([34], [67]). Ile1384, Ile1394, Ile1325, and one pseudo peak were fit as a single spin group to account for overlapping resonances. Measurements across multiple temperatures were then fitted to the van’t Hoff and Eyring equations to determine Δ HD°′ , TΔ SD,298.15K°′ , Δ HA°′‡ , TΔ SA,298.15K°′‡ , Δ HD°′‡ , and TΔ SD,298.15K°′‡ . Errors generated from TITAN fits were used to perform weighted least squares regressions, and the reported uncertainties are the 95% confidence intervals of fits.

[2] = system: N-terminal SH3 domain of Drk (T22G); test: ITC of Sos constructs (cell) with SH3 (syringe); format: binding, Drosophila melanogaster; details: for Kd: single-site model
Description: volume solution of SH3 was prepared in the same buffer, at an identical concentration of SH3. Measurements were
made at 4.2, 15, 25, 35 and 45 °C. The sample was then removed, diluted using the larger SH3 solution and returned
(§1) µM, with SH3 at 270 µM (Figure S3, Table S2).

[3] = molecular target: T1, N-terminal SH3 domain of Drk (T22G, 19F-W36) (Drosophila melanogaster, UniProt Q08012, T22G); test: 19F NMR titration of SH3 with Sos site 4 (two-state and bidentate fits); format: binding
T1 construct: the N-terminal SH3 domain of Drk (UniProt ID: Q08012); 19F label: 5-fluorotryptophan at W36 (chemical label on the side chain); made in house
T1 sequence (Q08012 1-58 T22G): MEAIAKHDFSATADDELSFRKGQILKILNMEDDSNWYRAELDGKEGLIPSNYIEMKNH
Description: Data were acquired using Bruker Avance III HD spectrometers equipped with a QCI cryoprobe (1H Larmor frequencies of 500, and 470 MHz for 19F). Data was processed using NMRpipe (2020.171.18.39) and referenced to trimethylsilylpropanesulfonate to account the temperature dependence of chemical shift. […]
site 4 (non-MBD tagged construct) was exchanged into of 50 mM HEPES, 50 mM bis-tris propane, 50 mM sodium acetate pH 7.5 plus 5% (v/v) D2O using a PD-10 Midi column (Cytiva) selecting the fractions with the highest concentration for the titration. The Sos solution was used to dissolved one aliquot of SH3, and a second, larger […]
volume solution of SH3 was prepared in the same buffer, at an identical concentration of SH3. Measurements were made at 4.2, 15, 25, 35 and 45 °C. The sample was then removed, diluted using the larger SH3 solution and returned […]
as §1

[4] = 298 K, linear Eyring fit, 95% confidence interval
[5] = linear Eyring fit, 95% confidence interval
[6] = 4.2 °C, SMG construct, 20 mM sodium phosphate pH 7.5, knockout subtracted, three fits
[7] = 4.2 °C, bidentate fit, strong site
[8] = 4.2 °C, bidentate fit, weak/nonspecific site
[9] = 15 °C, bidentate fit, strong site
[10] = 15 °C, bidentate fit, weak/nonspecific site
[11] = 25 °C, bidentate fit, strong site
[12] = 25 °C, bidentate fit, weak/nonspecific site
[13] = 35 °C, bidentate fit, strong site
[14] = 35 °C, bidentate fit, weak/nonspecific site
[15] = 45 °C, bidentate fit, strong site
[16] = 45 °C, bidentate fit, weak/nonspecific site

B1: Site 4: Sos residues 1177 to 1405, L1203A, L1372A, R1375A, C1306S, C1357S, L1346A, R1349A, R1350A (protein, UniProt P26675 1177-1405, looked up, variant L1203A L1372A R1375A C1306S C1357S L1346A R1349A R1350A)
chain: TSSWSGTPQHTRTDQNNGEVSVPAPHAPKKPGAHVWANNNSTLASASAMDVVFSPALPEHLPPQSLPDSNPFASDTEAPPSPLPKLVVSPRHETGNRSPFHGRMQNSPTHSTASTVTLTGMSTSGGEEFSAGGFYFNSAHQGQPGAVPISPHVNVPMATNMEYRAVPPPAPPAAKERTESSADMAQKRQAPDAPTAPPADGELSPPPIPPRLNHSTGISYLRQSHGKSK
[1]; 4.2 °C
  Kd: 3 ± 0.2 µM
  koff: 0.093 ± 0.002 10^3 s^−1
  kon: 0.31 ± 0.02 10^8 M^−1 s^−1
  ΔGA°′‡ (activation free energy of association): 6.69 ± 0.07 kcal/mol
  ΔGD°′ (dissociation free energy): 7.01 ± 0.07 kcal/mol
  ΔGD°′‡ (activation free energy of dissociation): 13.70 ± 0.02 kcal/mol
[1]; 4.2–45 °C
  temperature dependence of ΔGD°′‡ and ΔGA°′‡: do not change with temperature
[1]; 15 °C
  Kd: 4.5 ± 0.2 µM
  koff: 0.25 ± 0.09 10^3 s^−1
  kon: 0.56 ± 0.03 10^8 M^−1 s^−1
  ΔGA°′‡ (activation free energy of association): 6.64 ± 0.06 kcal/mol
  ΔGD°′ (dissociation free energy): 7.05 ± 0.04 kcal/mol
  ΔGD°′‡ (activation free energy of dissociation): 13.69 ± 0.04 kcal/mol
[1]; 25 °C
  Kd: 6.4 ± 0.2 µM
  koff: 0.62 ± 0.03 10^3 s^−1
  kon: 0.97 ± 0.06 10^8 M^−1 s^−1
  ΔGA°′‡ (activation free energy of association): 6.56 ± 0.06 kcal/mol
  ΔGD°′ (dissociation free energy): 7.09 ± 0.03 kcal/mol
  ΔGD°′‡ (activation free energy of dissociation): 13.64 ± 0.05 kcal/mol
[1]; 35 °C
  Kd: 9.7 ± 0.2 µM
  koff: 1.25 ± 0.04 10^3 s^−1
  kon: 1.29 ± 0.05 10^8 M^−1 s^−1
  ΔGA°′‡ (activation free energy of association): 6.62 ± 0.04 kcal/mol
  ΔGD°′ (dissociation free energy): 7.07 ± 0.02 kcal/mol
  ΔGD°′‡ (activation free energy of dissociation): 13.69 ± 0.03 kcal/mol
[1]; 45 °C
  Kd: 17.8 ± 0.5 µM
  koff: 4.4 ± 0.2 10^3 s^−1
  kon: 2.5 ± 0.1 10^8 M^−1 s^−1
  ΔGA°′‡ (activation free energy of association): 6.45 ± 0.05 kcal/mol
  ΔGD°′ (dissociation free energy): 6.91 ± 0.03 kcal/mol
  ΔGD°′‡ (activation free energy of dissociation): 13.36 ± 0.05 kcal/mol
[1]; [4]
  TΔSA°′‡ (activation entropy of association): 1 ± 1
  TΔSD°′‡ (activation entropy of dissociation): 1 ± 2
[1]; 298 K, linear van't Hoff fit, 95% confidence interval
  TΔSD°′ (van't Hoff): 0 ± 2 kcal/mol
[1]; [5]
  ΔHA°′‡ (activation enthalpy of association): 7 ± 1 kcal/mol
  ΔHD°′‡ (activation enthalpy of dissociation): 14 ± 1 kcal/mol
[1]; linear van't Hoff fit of 4.2-45 °C data, 95% confidence interval
  ΔHD°′ (van't Hoff): 7 ± 2 kcal/mol
[2]; [6]
  Kd: 3 ± 1 µM
  ΔHD°′: 2.8 ± 0.1 kcal/mol
[2]; 35 °C (35.1 in Table S1), SMG construct, 20 mM sodium phosphate pH 7.5, knockout subtracted, three fits
  Kd: 14 ± 3 µM
[2]; from ΔHD°′ at 4.2 and 35 °C
  sign of ΔCP,D: positive
[2]; unsaturated after >3 mole equivalents, specific plus nonspecific binding
  stoichiometry before knockout subtraction: > 1
[3]; [7]
  Site 1 koff: 0.080 103 s-1
  Site 1 kon: 0.37 108 s-1 M-1
[3]; 4.2 °C, bidentate fit, strong site, 50 mM HEPES, 50 mM bis-tris propane, 50 mM sodium acetate pH 7.5, 5% D2O, MG construct, read-out: Site 1 KD
  Kd: 2.15 µM
[3]; [8]
  Site 2 koff: 11 ± 4 103 s-1
  Site 2 kon: 0.15 108 s-1 M-1
[3]; 4.2 °C, bidentate fit, weak/nonspecific site, read-out: Site 2 KD
  Kd: 800 µM
[3]; 4.2 °C, two-state model (poor fit), read-out: KD
  Kd: 0.3 µM
[3]; [9]
  Site 1 koff: 0.239 103 s-1
  Site 1 kon: 0.49 108 s-1 M-1
[3]; 15 °C, bidentate fit, strong site, pH 7.5, read-out: Site 1 KD
  Kd: 4.9 µM
[3]; [10]
  Site 2 koff: 15 ± 4 103 s-1
  Site 2 kon: 0.10 108 s-1 M-1
[3]; 15 °C, bidentate fit, weak/nonspecific site, read-out: Site 2 KD
  Kd: 1500 µM
[3]; [11]
  Site 1 koff: 0.667 103 s-1
  Site 1 kon: 0.63 108 s-1 M-1
[3]; 25 °C, bidentate fit, strong site, pH 7.5, read-out: Site 1 KD
  Kd: 10.6 µM
[3]; [12]
  Site 2 koff: 19 ± 5 103 s-1
  Site 2 kon: 0.06 108 s-1 M-1
[3]; 25 °C, bidentate fit, weak/nonspecific site, read-out: Site 2 KD
  Kd: 3000 µM
[3]; [13]
  Site 1 koff: 1.74 103 s-1
  Site 1 kon: 0.80 108 s-1 M-1
[3]; 35 °C, bidentate fit, strong site, pH 7.5, read-out: Site 1 KD
  Kd: 21.7 µM
[3]; [14]
  Site 2 koff: 23 ± 7 103 s-1
  Site 2 kon: 0.04 108 s-1 M-1
[3]; 35 °C, bidentate fit, weak/nonspecific site, read-out: Site 2 KD
  Kd: 6000 µM
[3]; [15]
  Site 1 koff: 4.29 103 s-1
  Site 1 kon: 1.01 108 s-1 M-1
[3]; 45 °C, bidentate fit, strong site, pH 7.5, read-out: Site 1 KD
  Kd: 42.6 µM
[3]; [16]
  Site 2 koff: 30 ± 10 103 s-1
  Site 2 kon: 0.03 108 s-1 M-1
[3]; 45 °C, bidentate fit, weak/nonspecific site, read-out: Site 2 KD
  Kd: 10000 µM
